This data set can be described thus: label from the status in PepcDB records.
Turning to “MTAPLHLDSLFPSLDAIPEQYRPDAPIEQRDYLVDGQLRHWDGPLAPVRSPVFLAEADGERQVILGSTPLLDADAALAALDAAVRAYDHGQGLWPNLRVAERIQHVERFLARMREQREAVVKLLMWEIGKNLKDSEKEFDRTCDYIVDTIEALKELDRHSSRFELEQGTLGQIRRVPLGVALCMGPYNYPLNETFTTLIPALIMGNTVVFKPAKFGVLLIRPLLEAFRDSFPPGVINVIYGRGRETVSALMASGKVDVFAFIGTHSGASDLKKLHPRPHRLRAALGLDAKNPGIVLPQVDLDNAVNEAVTGALSFNGQRCTALKILFVHESVLRPFLDKFSARLASLKPGMPWEPGVALTPLPEPGKVDYLEGLLNDALAKGARVVNAGGGEHRQSFFYPALLSPVSPDMRLYHEEQFGPLVPVVPYRELDEVIDYVLRSDYGQQLSLFGNDPAQIGRLVDAFANQVGRINVNAQCQRGPDSYPFNGRKNSAEGTLSVHDALRVFSIRTLVATRDTEANKTLVSEII”, the protein production entry was “failed”. Then “MTAQIRLAEPADLNDDTLRARAVAAARGDQRFDVLITGGTLVDVVTGELRPADIGIVGALIASVHEPASRRDAAQVIDAGGAYVSPGLIDTHMHIESSMITPAAYAAAVVARGVTTIVWDPHEFGNVHGVDGVRWAAKAIENLPLRAILLAPSCVPSAPGLERGGADFDAAILADLLSWPEIGGIAEIMNMRGVIERDPRMSGIVQAGLAAEKLVCGHARGLKNADLNAFMAAGVSSDHELVSGEDLMAKLRAGLTIELRGSHDHLLPEFVAALNTLGHLPQTVTLCTDDVFPDDLLQGGGLDDVVRRLVRYGLKPEWALRAATLNAAQRLGRSDLGLIAAGRRADIVVFEDLNGFSARHVLASGRAVAEGGRMLVDIPTCDTTVLKGSMKLPLRMANDFLVKSQGAKVRLATIDRPRFTQWGETEADVKDGFVVPPEGATMISVTHRHGMAEPTTKTGFLTGWGRWNGAFATTVSHDSHNLTVFGGNAGDMALAANAVIGTGGGMAVASEGKVTAILPLPLSGLVSDAPLEEVARAFEDLREAVGKVVEWQPPYLVFKACFGATLACNIGPHQTDMGIADVLTGKVMESPVIEVLG”, with “failed”; and “MTARNILSYSYEEYVEKITAFHGYPAPGVLIGGFMVDLAVKNLPEGILYDAICETRTCLPDAVQLLTPCTFGNGWLTVLPMGLFAVSLYDKFTGEGVRVFLDVEKMGPWQEIRNWFLKLKTKKEQDSERLFKEIREAGPDILELRNVKLKPGFLEKKHKGKIVLCPQCREAYPAQDGELCLSCQGGSPYL”, with “not failed”. For “MTASFPTRVYLLRHAKAAWAAPGERDFDRGLNEAGFAEAEIIADLAADRRYRPDLILSSTAARCRQTTQAWQRAFNEGIDIVYIDEMYNARSETYLSLIAAQTEVQSVMLVGHNPTMEATLEAMIGEDLLHAALPSGFPTSGLAVLDQDDSAASGKNRWRLIDFLAPGK”, the protein production result is “not failed”.

In the case of “MTASIFSGVIPALMTPCRQDRTPDFDALVRKGKELIADGMSAVVYCGSMGDWPLLTDEQRMEGVERLVKAGIPVIVGTGAVNTASAVAHAVHAQKVGAKGLMVIPRVLSRGSVIAAQKAHFKAILSAAPEIPAVIYNSPYYGFATRADLFFALRAEHKNLVGFKEFGGPADMRYAAENITSRDDEVTLMIGVDTAVVHGFVNCGATGAITGIGNVLPKEVIHLCKLSQAAAKGDADARARALELEQALAVLSSFDEGPDLVLYFKYMMVLKGDKEYTLHFNETDALTDSQRGYVEAQFKLFNSWYADWSKLPGAVQTCKAA”, the protein production result is listed as “not failed”. The entry for “MTASVTASVTAPETAPVPIVLAGARGHGRWHLDNIRRLQDRGLVRLAGICELTPLAEEELDGLGVPEQSADFGSLLDATGAAIAVICTPIPTHTDLALTAAERGVHLLLEKPPAPSFAEFRRMADGVAAAGVVCQIGFQSLGSGAVPGIRKLIAEGALGTVAGIGAAGAWARDEAYYRRAPWAGKRRLNGVDVIDGVLTNPLAHAVATALALDGSTRAEDVTDIETELLRANDIESDDTSCVRVTTKSGGRITVAATLCAEEPDEPYVLVHGDRGRITFWYKQDRVLVQRSGHGPQEIEYDRTDLLENLVGHLTHGAELLVTPESTGAFMKVVEAIRQAPDPVALPGDAWELIPGENRRVVRGVDGLVAAAADTLALYSELGASWALPNEVSSR” is “failed”.

The values are drawn from a protein production outcome set (Wang et al. 2014).
